Results reported in IntAct's records for PubMed 29892012.

B1: Kinetochore protein NDC80 homolog (Homo sapiens), O14777 (parent)
chain: MKRSSVSSGGAGRLSMQELRSQDVNKQGLYTPQTKEKPTFGKLSINKPTSERKVSLFGKRTSGHGSRNSQLGIFSSSEKIKDPRPLNDKAFIQQCIRQLCEFLTENGYAHNVSMKSLQAPSVKDFLKIFTFLYGFLCPSYELPDTKFEEEVPRIFKDLGYPFALSKSSMYTVGAPHTWPHIVAALVWLIDCIKIHTAMKESSPLFDDGQPWGEETEDGIMHNKLFLDYTIKCYESFMSGADSFDEMNAELQSKLKDLFNVDAFKLESLEAKNRALNEQIARLEQEREKEPNRLESLRKLKASLQGDVQKYQAYMSNLESHSAILDQKLNGLNEEIARVELECETIKQENTRLQNIIDNQKYSVADIERINHERNELQQTINKLTKDLEAEQQKLWNEELKYARGKEAIETQLAEYHKLARKLKLIPKGAENSKGYDFEIKFNPEAGANCLVKYRAQVYVPLKELLNETEEEINKALNKKMGLEDTLEQLNAMITESKRSVRTLKEEVQKLDDLYQQKIKEAEEEDEKCASELESLEKHKHLLESTVNQGLSEAMNELDAVQREYQLVVQTTTEERRKVGNNLQRLLEMVATHVGSVEKHLEEQIAKVDREYEECMSEDLSENIKEIRDKYEKKATLIKSSEE
partner: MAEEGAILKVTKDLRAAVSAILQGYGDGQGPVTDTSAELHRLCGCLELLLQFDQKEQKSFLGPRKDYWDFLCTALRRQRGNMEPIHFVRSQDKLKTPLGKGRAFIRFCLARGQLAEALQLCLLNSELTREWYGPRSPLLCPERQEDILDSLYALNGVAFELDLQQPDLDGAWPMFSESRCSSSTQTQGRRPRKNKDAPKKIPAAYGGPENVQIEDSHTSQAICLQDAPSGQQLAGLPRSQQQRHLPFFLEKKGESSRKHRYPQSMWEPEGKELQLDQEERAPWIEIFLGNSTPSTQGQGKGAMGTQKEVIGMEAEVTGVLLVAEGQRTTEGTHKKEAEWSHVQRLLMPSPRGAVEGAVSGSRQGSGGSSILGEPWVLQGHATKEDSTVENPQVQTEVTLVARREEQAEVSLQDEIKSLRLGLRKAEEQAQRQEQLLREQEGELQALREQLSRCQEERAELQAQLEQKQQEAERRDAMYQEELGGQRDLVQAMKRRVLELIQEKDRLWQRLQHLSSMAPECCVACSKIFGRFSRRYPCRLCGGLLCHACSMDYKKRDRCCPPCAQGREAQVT
B2: Keratin, type I cuticular Ha8 (Homo sapiens), O76015 (parent)
chain: MTSSYSSSSCPLGCTMAPGARNVSVSPIDIGCQPGAEANIAPMCLLANVAHANRVRVGSTPLGRPSLCLPPTCHTACPLPGTCHIPGNIGICGAYGENTLNGHEKETMQFLNDRLANYLEKVRQLEQENAELEATLLERSKCHESTVCPDYQSYFHTIEELQQKILCSKAENARLIVQIDNAKLAADDFRIKLESERSLRQLVEADKCGTQKLLDDATLAKADLEAQQESLKEEQLSLKSNHEQEVKILRSQLGEKLRIELDIEPTIDLNRVLGEMRAQYEAMLETNRQDVEQWFQAQSEGISLQDMSCSEELQCCQSEILELRCTVNALEVERQAQHTLKDCLQNSLCEAEDRFGTELAQMQSLISNVEEQLSEIRADLERQNQEYQVLLDVKTRLENEIATYRNLLESEDCKLPCNPCSTSPSCVTAPCAPRPSCGPCTTCGPTCGASTTGSRF
partner: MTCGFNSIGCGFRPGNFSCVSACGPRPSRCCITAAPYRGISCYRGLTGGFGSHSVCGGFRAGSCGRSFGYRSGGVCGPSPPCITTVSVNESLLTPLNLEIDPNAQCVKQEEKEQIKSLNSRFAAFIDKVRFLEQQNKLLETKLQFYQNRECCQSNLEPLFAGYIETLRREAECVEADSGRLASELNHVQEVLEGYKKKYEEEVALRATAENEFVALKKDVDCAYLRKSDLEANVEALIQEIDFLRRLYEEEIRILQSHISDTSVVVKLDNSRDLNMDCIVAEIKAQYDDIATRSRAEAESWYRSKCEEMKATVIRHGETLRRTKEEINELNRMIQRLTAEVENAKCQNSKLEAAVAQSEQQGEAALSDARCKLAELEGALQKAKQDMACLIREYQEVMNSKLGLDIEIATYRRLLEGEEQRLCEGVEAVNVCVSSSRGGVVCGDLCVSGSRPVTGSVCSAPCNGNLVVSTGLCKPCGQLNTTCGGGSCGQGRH
B3: Ribosome assembly protein METTL17, mitochondrial (Homo sapiens), Q9H7H0 (parent)
chain: MAAALKCLLTLGRWCPGLGVAPQARALAALVPGVTQVDNKSGFLQKRPHRQHPGILKLPHVRLPQALANGAQLLLLGSAGPTMENQVQTLTSYLWSRHLPVEPEELQRRARHLEKKFLENPDLSQTEEKLRGAVLHALRKTTYHWQELSYTEGLSLVYMAARLDGGFAAVSRAFHEIRARNPAFQPQTLMDFGSGTGSVTWAAHSIWGQSLREYMCVDRSAAMLVLAEKLLKGGSESGEPYIPGVFFRQFLPVSPKVQFDVVVSAFSLSELPSKADRTEVVQTLWRKTGHFLVLVENGTKAGHSLLMDARDLVLKGKEKSPLDPRPGFVFAPCPHELPCPQLTNLACSFSQAYHPIPFSWNKKPKEEKFSMVILARGSPEEAHRWPRITQPVLKRPRHVHCHLCCPDGHMQHAVLTARRHGRDLYRCARVSSWGDLLPVLTPSAFPPSTAQDPSES
partner: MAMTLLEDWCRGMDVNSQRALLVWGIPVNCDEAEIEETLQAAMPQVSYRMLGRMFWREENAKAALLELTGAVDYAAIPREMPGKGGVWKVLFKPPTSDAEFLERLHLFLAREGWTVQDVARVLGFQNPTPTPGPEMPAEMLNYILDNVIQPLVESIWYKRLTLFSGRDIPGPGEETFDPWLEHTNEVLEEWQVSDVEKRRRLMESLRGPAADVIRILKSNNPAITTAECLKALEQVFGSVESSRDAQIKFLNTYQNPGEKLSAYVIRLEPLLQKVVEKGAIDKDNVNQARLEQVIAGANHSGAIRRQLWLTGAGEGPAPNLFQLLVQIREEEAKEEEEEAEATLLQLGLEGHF
B4: Enhancer of mRNA-decapping protein 3 (Homo sapiens), Q96F86 (parent)
chain: MATDWLGSIVSINCGDSLGVYQGRVSAVDQVSQTISLTRPFHNGVKCLVPEVTFRAGDITELKILEIPGPGDNQHFGDLHQTELGPSGAGCQVGINQNGTGKFVKKPASSSSAPQNIPKRTDVKSQDVAVSPQQQQCSKSYVDRHMESLSQSKSFRRRHNSWSSSSRHPNQATPKKSGLKNGQMKNKDDECFGDDIEEIPDTDFDFEGNLALFDKAAVFEEIDTYERRSGTRSRGIPNERPTRYRHDENILESEPIVYRRIIVPHNVSKEFCTDSGLVVPSISYELHKKLLSVAEKHGLTLERRLEMTGVCASQMALTLLGGPNRLNPKNVHQRPTVALLCGPHVKGAQGISCGRHLANHDVQVILFLPNFVKMLESITNELSLFSKTQGQQVSSLKDLPTSPVDLVINCLDCPENVFLRDQPWYKAAVAWANQNRAPVLSIDPPVHEVEQGIDAKWSLALGLPLPLGEHAGRIYLCDIGIPQQVFQEVGINYHSPFGCKFVIPLHSA
B5: Keratin, type I cuticular Ha8 (Homo sapiens), O76015 (parent)
chain: B2 chain
partner: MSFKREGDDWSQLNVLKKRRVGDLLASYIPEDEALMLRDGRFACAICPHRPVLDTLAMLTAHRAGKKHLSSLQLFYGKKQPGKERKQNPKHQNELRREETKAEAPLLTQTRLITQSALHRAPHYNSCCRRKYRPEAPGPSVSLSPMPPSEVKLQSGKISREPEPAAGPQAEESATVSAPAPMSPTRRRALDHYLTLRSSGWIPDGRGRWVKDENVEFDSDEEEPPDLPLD

Variants of: B1
Settings: with rufy4_human RUFY4, Q6ZNE9

Q: K288E was tested. Which “effect of a mutation on the interaction” value did it give?
A: with no effect

Variants of: B2
Settings: with krt83_human KRT83, P78385

Q: With D306A as the variant, how does the “effect of a mutation on the interaction” value read?
A: with no effect

Variants of: B2
Settings: with krt83_human KRT83, P78385
Remark: another data set of the same source

Q: N270K was tested. Which “effect of a mutation on the interaction” value did it give?
A: with no effect

Variants of: B3
Settings: with pnma1_human PNMA1, Q8ND90

Q: How did the “effect of a mutation on the interaction” value turn out when R212H was run?
A: with no effect

Variants of: B4
Settings: with ddx6_human DDX6, P26196
Chain of ddx6_human DDX6, P26196 (P26196 whole entry): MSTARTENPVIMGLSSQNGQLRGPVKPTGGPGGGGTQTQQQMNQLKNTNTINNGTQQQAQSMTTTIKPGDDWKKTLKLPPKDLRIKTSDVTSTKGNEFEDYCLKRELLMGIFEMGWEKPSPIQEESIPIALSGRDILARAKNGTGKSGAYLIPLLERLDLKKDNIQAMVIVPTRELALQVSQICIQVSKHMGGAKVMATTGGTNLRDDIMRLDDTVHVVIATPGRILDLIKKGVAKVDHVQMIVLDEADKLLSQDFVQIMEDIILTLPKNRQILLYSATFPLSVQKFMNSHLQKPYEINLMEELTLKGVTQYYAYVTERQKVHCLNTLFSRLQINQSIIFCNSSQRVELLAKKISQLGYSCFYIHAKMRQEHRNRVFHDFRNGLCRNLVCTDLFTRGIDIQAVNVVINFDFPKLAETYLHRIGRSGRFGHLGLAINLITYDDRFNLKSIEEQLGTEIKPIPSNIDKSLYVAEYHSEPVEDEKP

Q: Which “effect of a mutation on the interaction” value does the source give for F213L here?
A: disrupting interaction strength

Variants of: B5
Settings: with scnm1_human SCNM1, Q9BWG6

Q: Which “effect of a mutation on the interaction” value does the source give for N270K here?
A: with no effect
